# Biological target: lamprey GnRH receptor (sea lamprey (Petromyzon marinus))
# Assay: cell-based or functional assay
substance,measurement,value
lamprey GnRH-III (from UniProt P30948 1-10) (peptide),fold difference of EC50 against lamprey GnRH-I (IP and cAMP) (fold lower than lamprey GnRH-I),40 to 50
